Reference: patent publication US20130197070, “AXL RECEPTOR TYROSINE KINASE APTAMER INHIBITOR FOR USE IN THERAPY” (CNR - CONSIGLIO NAZIONALE DELLE RICERCHE, published 2013)

Experiments:
[1] = molecular target: Axl receptor tyrosine kinase (cell surface) (Homo sapiens, UniProt P30530 P30530:26-894); experiment: binding to Axl-positive U87MG cells; reduced by Axl shRNA; binds Axl-transfected SKBr3 but not parental SKBr3; settings: label: 5'-32P
[2] = molecular target: T1, Mer extracellular domain (EC-Mer) (UniProt Q12866 Q12866:21-505); experiment: filter; no Kd calculable up to 1000 nM protein; no binding or affinity at least 10^3 lower; PBS, 0.01% BSA, 37 C; settings: tags: soluble extracellular domain, R&D Systems; label: 5'-32P
T1 sequence: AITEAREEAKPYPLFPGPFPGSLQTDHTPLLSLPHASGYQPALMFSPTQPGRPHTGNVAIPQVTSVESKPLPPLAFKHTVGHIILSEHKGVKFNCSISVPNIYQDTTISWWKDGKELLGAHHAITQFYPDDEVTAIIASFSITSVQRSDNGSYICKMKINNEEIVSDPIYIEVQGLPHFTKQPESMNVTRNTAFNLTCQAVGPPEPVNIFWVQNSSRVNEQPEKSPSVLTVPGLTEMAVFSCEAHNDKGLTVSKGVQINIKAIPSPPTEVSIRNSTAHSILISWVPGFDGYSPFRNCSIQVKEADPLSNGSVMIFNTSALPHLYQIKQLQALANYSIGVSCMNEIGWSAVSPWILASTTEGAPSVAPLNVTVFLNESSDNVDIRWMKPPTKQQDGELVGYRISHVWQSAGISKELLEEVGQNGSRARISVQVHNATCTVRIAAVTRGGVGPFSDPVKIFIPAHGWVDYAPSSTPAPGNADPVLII
Experimental: (§1) 1 nM of radiolabelled aptamers (GL21 52-85 or Unrelated) were incubated with 1, 3.2, 10, 32, 100, 320 and 1000 nM of Axl, Dtk, Mer soluble extracellular domain (all from R&D Systems, Minneapolis, Minn.) for 15 min at 37° in phosphate-buffered saline (PBS) supplemented with 0.01% bovine serum albumin.
(§2) After incubation, the aptamer-protein mix was passed through nitrocellulose membrane filter (Millipore Co., Bedford, Mass.) and filters were counted.

[3] = molecular target: Axl extracellular domain (EC-Axl) (UniProt P30530 P30530:26-451); experiment: filter; PBS, 0.01% BSA, 37 C, 15 min; unrelated aptamer background subtracted; settings: tags: soluble extracellular domain, R&D Systems; label: 5'-32P
Experimental: as §1, §2

[4] = molecular target: T2, Dtk (Tyro3) extracellular domain (EC-Dtk) (UniProt Q06418 Q06418:41-429); experiment: as above; settings: tags: soluble extracellular domain, R&D Systems; label: 5'-32P
T2 sequence: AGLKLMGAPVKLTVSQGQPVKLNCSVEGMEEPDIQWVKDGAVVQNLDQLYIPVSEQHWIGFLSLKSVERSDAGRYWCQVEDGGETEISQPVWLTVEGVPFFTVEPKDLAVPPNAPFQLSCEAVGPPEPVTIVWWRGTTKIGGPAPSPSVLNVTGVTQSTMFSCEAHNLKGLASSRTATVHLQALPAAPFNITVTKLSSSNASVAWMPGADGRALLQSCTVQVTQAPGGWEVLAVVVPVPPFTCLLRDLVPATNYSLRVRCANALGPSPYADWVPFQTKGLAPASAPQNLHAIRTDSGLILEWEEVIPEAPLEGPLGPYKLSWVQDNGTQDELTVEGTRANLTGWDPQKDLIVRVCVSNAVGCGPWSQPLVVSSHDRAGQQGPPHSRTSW
Experimental: as §1, §2

Axl extracellular domain (EC-Axl), sequence (P30530 26-451, one chain of several): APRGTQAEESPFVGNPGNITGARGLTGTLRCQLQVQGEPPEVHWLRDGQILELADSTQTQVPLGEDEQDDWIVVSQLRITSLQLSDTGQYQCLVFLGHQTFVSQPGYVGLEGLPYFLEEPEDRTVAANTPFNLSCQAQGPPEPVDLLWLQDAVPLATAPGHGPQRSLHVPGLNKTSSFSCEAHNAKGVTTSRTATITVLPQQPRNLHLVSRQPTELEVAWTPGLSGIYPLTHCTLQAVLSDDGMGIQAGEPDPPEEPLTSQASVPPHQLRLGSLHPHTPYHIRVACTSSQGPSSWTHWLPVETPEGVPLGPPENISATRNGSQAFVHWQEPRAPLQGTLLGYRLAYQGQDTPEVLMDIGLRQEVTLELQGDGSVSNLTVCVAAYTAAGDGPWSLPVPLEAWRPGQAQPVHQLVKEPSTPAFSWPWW
Axl receptor tyrosine kinase (cell surface), sequence (P30530 26-894, one chain of several): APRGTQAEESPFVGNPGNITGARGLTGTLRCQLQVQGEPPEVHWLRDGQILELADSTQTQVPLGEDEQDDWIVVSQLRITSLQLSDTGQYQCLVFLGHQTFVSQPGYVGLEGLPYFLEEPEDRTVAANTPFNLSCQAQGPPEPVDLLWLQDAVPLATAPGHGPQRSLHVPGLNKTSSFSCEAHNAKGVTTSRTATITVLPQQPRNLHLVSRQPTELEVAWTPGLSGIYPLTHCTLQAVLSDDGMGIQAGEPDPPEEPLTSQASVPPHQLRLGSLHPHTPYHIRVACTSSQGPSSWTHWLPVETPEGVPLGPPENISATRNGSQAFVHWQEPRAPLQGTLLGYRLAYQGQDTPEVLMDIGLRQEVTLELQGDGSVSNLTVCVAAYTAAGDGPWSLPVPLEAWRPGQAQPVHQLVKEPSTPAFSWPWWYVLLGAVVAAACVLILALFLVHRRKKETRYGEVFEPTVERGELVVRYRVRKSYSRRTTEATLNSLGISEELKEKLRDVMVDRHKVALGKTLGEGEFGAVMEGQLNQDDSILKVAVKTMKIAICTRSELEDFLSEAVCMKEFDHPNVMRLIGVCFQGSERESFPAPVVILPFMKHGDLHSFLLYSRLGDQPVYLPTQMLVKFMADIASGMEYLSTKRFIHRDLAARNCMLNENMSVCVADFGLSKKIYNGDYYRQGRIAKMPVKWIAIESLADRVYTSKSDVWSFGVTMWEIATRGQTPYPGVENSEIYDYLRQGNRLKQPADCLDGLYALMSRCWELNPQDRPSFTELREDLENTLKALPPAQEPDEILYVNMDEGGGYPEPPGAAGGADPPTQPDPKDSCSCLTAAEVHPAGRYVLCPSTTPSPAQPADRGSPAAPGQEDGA

B1: GL21 52-85 (GL21.T) (ssRNA)
RNA: AUGAUCAAUCGCCUCAAUUCGACAGGAGGCUCAC
modifications: 2'-F on all pyrimidines
Kd [1]: 90 nM | binding result [2]: no binding | Kd [3]: 13 nM | Kd [4]: 47 nM
